This is an account of results in patent US11020478B2, “Methods for modulating angiogenesis of cancers refractory to anti-VEGF treatment” (INIS BIOTECH LLC, priority 2013, dated 2021).

One test concerns HUVEC. Put plainly: Binding of 488-Gal1 to ECs (flow cytometry). The format is cell-based, human. A general note: In flow cytometry, cells or beads pass a laser one at a time.
A further test deals with ECs. The experiment in a line: EC proliferation assay ([3H]-thymidine). It is filed as cell-based, human. As for the experimental part:
(§1) Cells were incubated at 37° C. for periods ranging from 0 to 24 h and were visualized by phase-contrast microscopy. Capillary-like tubular structures were scored by counting the number of tubules (closed areas) per well in a phase-contrast microscope (Nikon E-100). For migration assays, ECs (4×10^4/well) transfected or not with specific siRNA were resuspended in M199 medium supplemented with 1% FCS. Cells were placed into the top chamber of the insert while the bottom well was filled with Gal1 or VEGF-A in the absence or presence of the above mentioned stimuli. After 24 hours, inserts were stained with crystal violet (Sigma) and analyzed in an inverted microscope. For each filter, 4 images were obtained and cells were counted with ImageJ software v1.46r (NIH). […] After 24 hours, cells were incubated in the presence of 0.8 μCi [^3H]-thymidine (NEN Dupont). Cells were then harvested and radioactivity was measured in a 1414 Liquid Scintillation Counter (Perkin Elmer). Tumor-associated ECs were identified by flow cytometry using Alexa Fluor 647-conjugated anti-CD34 (RAM34; eBioscience) and FITC-conjugated anti-CD45 (J33; Immunotech). Microvessel density (MVD) was determined by counting the number of CD31^+ microvessels present in 10 mm^2. Ten random 400× fields were counted.

A further test deals with HUVEC migration. Put plainly: EC migration assay (HUVEC). The format is cell-based, human. Details: inhibitory activity in Gal1-induced cell migration: dose or concentration left out as unconfirmed. As for the experimental part:
as §1

The subject of the next test is HUVEC tube formation. The experiment in a line: Capillary-like tube formation on Matrigel (HUVEC). The format is cell-based, human. As to conditions: for tube formation induced by Gal1 / inhibitory activity in Gal1-induced formation of tubular structures (tubulogenesis): HUVEC. As for the experimental part: as §1
A further test has as its target T1, rhVEGFR2 (Homo sapiens, UniProt P35968).
T1 construct: the recombinant extracellular domain of VEGFR2 expressed in human cells (Sino Biological Inc.); purchased Sino Biological Inc; host or cells: human cells
The experiment in a line: FRET-based fluorescence spectroscopy, Gal1 binding to rhVEGFR2. As to conditions: 594-Gal1 added to 0.5 μM 488-VEGFR2, 25° C. As for the experimental part:
Association between rhVEGFR2 and Gal1 was studied by a FRET-based fluorescence spectroscopy approach. NHS-activated fluorophores DyLight 488 (DL488, FRET donor) and DyLight 594 (DL594, FRET acceptor) were purchased from Thermo Scientific. For labeling, 4 mg rhGal1 and 100 μg of the recombinant extracellular domain of VEGFR2 expressed in human cells (Sino Biological Inc.) were modified with 200 μg of DL594 and 50 μg of DL488, respectively. Labeling was carried out in PBS buffer in the presence of 5 mM dithiothreitol (DTT) for 1 hour at room temperature following manufacturer's recommended protocol (Thermo Scientific). Labeled rhGal1 was purified by size exclusion chromatography using a Superdex-75 column (GE Life Sciences) generated in PBS containing 5 mM DTT and concentrated up to 200 μM using Centricon tubes (Millipore). Labeled VEGFR2 was dialyzed for 48 hours against PBS using a homemade microdialyzer. Fluorescence spectra were measured in a JASCO FP-6500 spectrofluorometer endowed with a Peltier effect thermostatized cell holder. A 4×4 mm fluorescence cell was employed. All binding assays were carried out at 25° C. in PBS buffer with the addition of 5 mM DTT. Excitation wavelength was set to 493 nm, with a bandpass of 1 nm. Emission spectra were recorded from 500 to 680 nm, using a bandpass of 3 nm. […] Fluorescence intensity at 518 nm was corrected for dilution and inner filter effects.

Test [1] concerns Gal1 peptides with the consensus motif MAADGDF. The experiment in a line: PEPperMAP Conformational Epitope Mapping Analysis. It is filed as binding. The following applies: antibody 10 μg/mL; all three peptide lengths. As for the experimental part: Epitope mapping: In order to determine the specific conformational epitopes recognized by the new anti-Gal1 antibodies, a PEPperMAP® Conformational Epitope Mapping Analysis was performed.

For the next test, the target named is T2, human recombinant Gal-1 (Homo sapiens, UniProt P09382).
T2 construct: made in house
T2 sequence (P09382 whole entry): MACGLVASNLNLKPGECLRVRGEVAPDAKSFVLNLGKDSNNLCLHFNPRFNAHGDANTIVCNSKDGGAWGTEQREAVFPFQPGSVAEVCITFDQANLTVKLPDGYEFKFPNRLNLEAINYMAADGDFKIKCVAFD
Put plainly: Affinity assay (SPR) of fully human anti-Gal1 monoclonal antibodies. The format is binding. As to conditions: for Ka: kinetics model of interaction adjustment 1:1, BIAEvaluation 3.0. An excerpt:
Also conducted was an affinity assay (SPR) for the newly developed fully human anti-Gal1 monoclonal antibodies. In order to characterize affinities of the new anti-Gal-1 monoclonal antibodies, dose-response (RU) curves were collected of the interactions between the monoclonal antibodies and human recombinant Gal-1 (FIG. 14A and FIG. 14B).
By using the BIAEvaluation 3.0 software in a kinetics model of interaction adjustment 1:1, kinetic parameters, constants of dissociation (Kd) and affinity (Ka) were calculated.

T1 sequence (P35968 20-764 limits assumed): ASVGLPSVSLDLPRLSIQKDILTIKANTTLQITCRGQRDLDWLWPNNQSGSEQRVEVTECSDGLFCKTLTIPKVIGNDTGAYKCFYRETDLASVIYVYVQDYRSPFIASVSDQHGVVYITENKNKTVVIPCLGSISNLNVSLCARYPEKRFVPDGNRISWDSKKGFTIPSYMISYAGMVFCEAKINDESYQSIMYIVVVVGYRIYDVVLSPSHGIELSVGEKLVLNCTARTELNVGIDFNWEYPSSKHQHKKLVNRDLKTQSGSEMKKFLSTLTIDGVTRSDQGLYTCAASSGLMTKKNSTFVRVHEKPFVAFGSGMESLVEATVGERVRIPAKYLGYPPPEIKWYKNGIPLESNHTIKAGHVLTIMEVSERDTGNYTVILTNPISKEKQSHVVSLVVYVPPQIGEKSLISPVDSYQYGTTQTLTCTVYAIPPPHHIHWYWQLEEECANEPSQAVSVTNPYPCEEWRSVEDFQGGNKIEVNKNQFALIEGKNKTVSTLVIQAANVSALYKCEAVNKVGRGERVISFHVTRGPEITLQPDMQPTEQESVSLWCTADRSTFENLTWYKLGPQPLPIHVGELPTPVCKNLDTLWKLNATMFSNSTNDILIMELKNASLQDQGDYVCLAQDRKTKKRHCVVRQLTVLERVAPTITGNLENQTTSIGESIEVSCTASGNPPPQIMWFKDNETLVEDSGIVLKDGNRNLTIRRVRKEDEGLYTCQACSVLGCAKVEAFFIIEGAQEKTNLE

Regarding `CC(=O)N[C@H]1[C@@H](OCc2ccccc2)O[C@H](CO)[C@H](O)[C@@H]1O` [benzyl-α-GalNAc], the “Gal1 binding to ECs in presence of inhibitor” value in the test on HUVEC is listed as “only partially inhibitory”.

As to `O[C@H]1[C@H]2[C@H](O)CCCN2C[C@H]1O` [swainsonine, reference compound], in the test with ECs, the “EC proliferation induced by Gal1” value was “almost completely prevented”. Further, the “EC migration induced by Gal1” value in the test on HUVEC migration is given as “almost completely prevented”. The “Gal1 binding to ECs in presence of inhibitor” value in the test on HUVEC is “almost completely abrogated”. Besides, in the test on HUVEC tube formation, the “tube formation induced by Gal1” value is recorded as “almost completely prevented”.

For the molecule “Gal1^N46D: Gal1 mutant lacking carbohydrate-binding activity [reference compound]”, in the test with HUVEC (any of the concentrations tested), the “binding to ECs” value is “no binding”. Moreover, the “impact on EC response” value in the test on HUVEC tube formation was “no impact”.

In the case of “Gal1: recombinant Galectin-1, glycan-binding protein (SEQ ID NO: 2)”, the “dissociation constant (Kd)” value with rhVEGFR2 was “low micromolar range”.

Turning to `OC[C@H]1O[C@@H](O[C@H]2[C@H](O)[C@@H](O)C(O)O[C@@H]2CO)[C@H](O)[C@@H](O)[C@H]1O` (stereo partly drawn) [lactose, reference compound], in the test with ECs, the “EC proliferation induced by Gal1” value was “almost completely prevented”. In addition, the “EC migration induced by Gal1” value in the test with HUVEC migration is listed as “almost completely prevented”. In addition, the “tube formation induced by Gal1” value with HUVEC tube formation was “almost completely prevented”.

B1: Clone 21: fully human anti-Gal1 monoclonal antibody (IgG1) from scFv library; VH SEQ ID NO: 15, VK SEQ ID NO: 19 (antibody, V domains shown)
VH: EVQLLESGGGLVQPGGSLRLSCAASGFTFSSYAMSWVRQAPGKGLEWVSEIGRVGVNTLYADSVKGRFTISRDNSKNTLYLQMNSLRAEDTAVYYCAKKATQFDYWGQGTLVTVSS
VL: DIQMTQSPSSLSASVGDRVTITCRASQSISSYLNWYQQKPGKAPKLLIYRASRLQSGVPSRFSGSGSGTDFTLTISSLQPEDFATYYCQQTIGPPDTFGQGTKVEIKR
modifications: IgG1 format
Consider B1, for which the “binding activity against epitope-like spots formed by adjacent peptides with consensus motif MAADGDF” value in test [1] was “moderate to high binding activity”. Also, the “inhibitory activity in Gal1-induced cell migration” value in the test on HUVEC migration is given as “significantly blocked”. Besides, in the test with human recombinant Gal-1, the “interaction with human recombinant Gal1” value is “high specific interactions” and the Ka was 649000 M⁻¹. For the same molecule, the “inhibitory activity in Gal1-induced formation of tubular structures (tubulogenesis)” value in the test on HUVEC tube formation was “significantly blocked”.

B2: Clone 42: fully human anti-Gal1 monoclonal antibody (IgG1) from scFv library; VH SEQ ID NO: 23, VK SEQ ID NO: 27 (antibody, V domains shown)
VH: EVQLLESGGGLVQPGGSLRLSCAASGFTFSSYAMSWVRQAPGKGLEWVSGISGSGDYTSYADSVKGRFTISRDNSKNTLYLQMNSLRAEDTAVYYCAKGYGAFDYWGQGTLVTVSS
VL: DIQMTQSPSSLSASVGDRVTITCRASQSISSYLNWYQQKPGKAPKLLIYGASWLQSGVPSRFSGSGSGTDFTLTISSLQPEDFATYYCQQSANYPSTFGQGTKVEIKR
modifications: IgG1 format
In the case of B2, the “binding activity against epitope-like spots formed by adjacent peptides with consensus motif MAADGDF” value in test [1] was “higher binding activity”. In the test on HUVEC migration, the “inhibitory activity in Gal1-induced cell migration” value was “significantly blocked”. In the test with human recombinant Gal-1, the “interaction with human recombinant Gal1” value is listed as “high specific interactions” and the Ka worked out at 7.63e+06 M⁻¹. Further, in the test with HUVEC tube formation, the “inhibitory activity in Gal1-induced formation of tubular structures (tubulogenesis)” value is listed as “significantly blocked”.
